Three molecules from paper PMC10063658, “The RNA-binding protein hnRNP F is required for the germinal center B cell response” can be followed below.

One data set has as its system hnRNP H3 (mouse). Put plainly: pull-down/MS. To be noted: Pull-down: 20 mM Tris-HCl pH 7.5, 200 mM NaCl, 6 mM EDTA, 5 mM KF, 5 mM beta-glycerophosphate, 4 h at 4 C, 100 ug nuclear extract; EMSA: BersinBio RNA-EMSA ….
The subject of another data set is hnRNP H2 (mouse). Put plainly: pull-down/MS. As to conditions: Pull-down: 20 mM Tris-HCl pH 7.5, 200 mM NaCl, 6 mM EDTA, 5 mM KF, 5 mM beta-glycerophosphate, 4 h at 4 C, 100 ug nuclear extract; EMSA: BersinBio RNA-EMSA ….
In data set [1] the test system is hnRNP H1 (B cell nuclear extract) (mouse). Put plainly: pull-down/MS. As to conditions: Pull-down: 20 mM Tris-HCl pH 7.5, 200 mM NaCl, 6 mM EDTA, 5 mM KF, 5 mM beta-glycerophosphate, 4 h at 4 C, 100 ug nuclear extract; EMSA: BersinBio RNA-EMSA ….
In the next data set the test system is CELF2 (mouse). The data set is described as follows: pull-down/MS. To be noted: Pull-down: 20 mM Tris-HCl pH 7.5, 200 mM NaCl, 6 mM EDTA, 5 mM KF, 5 mM beta-glycerophosphate, 4 h at 4 C, 100 ug nuclear extract; EMSA: BersinBio RNA-EMSA ….
A further data set has as its target T1, hnRNP F (mouse, UniProt Q9Z2X1 1-415).
T1 sequence: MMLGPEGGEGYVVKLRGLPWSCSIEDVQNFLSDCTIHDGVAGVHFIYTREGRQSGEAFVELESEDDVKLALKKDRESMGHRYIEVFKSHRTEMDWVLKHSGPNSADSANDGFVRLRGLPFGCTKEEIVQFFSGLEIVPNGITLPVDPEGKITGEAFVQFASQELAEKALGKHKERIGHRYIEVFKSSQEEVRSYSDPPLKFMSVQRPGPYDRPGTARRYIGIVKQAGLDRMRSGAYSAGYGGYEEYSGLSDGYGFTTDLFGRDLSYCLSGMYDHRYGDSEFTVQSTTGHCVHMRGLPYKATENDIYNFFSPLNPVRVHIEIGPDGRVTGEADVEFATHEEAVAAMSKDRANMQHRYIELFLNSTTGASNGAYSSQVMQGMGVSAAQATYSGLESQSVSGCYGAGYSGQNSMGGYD
The data set is described as follows: EMSA; Pull-down: 20 mM Tris-HCl pH 7.5, 200 mM NaCl, 6 mM EDTA, 5 mM KF, 5 mM beta-glycerophosphate, 4 h at 4 C, 100 ug nuclear extract; EMSA: BersinBio RNA-EMSA kit, 12.5 nM biotin-RNA, 200 ng protein. To be noted: protein: recombinant, tags: His.

Cd40 exon 6 sense RNA: the binding signal (fold LFQ (sense/antisense)) (with hnRNP H3 (mouse); with hnRNP H2 (mouse); in data set [1]; with CELF2 (mouse)) was more than 5 in each case.

Regarding UCCAGGGGAGAAUGGCCUUGCCAAGUCUUUGGGAAGCAGGGAACU (ssRNA) [I6-WT], the binding result with hnRNP F is on record as “binds”.

In the case of UCAGGAGAGGAAAGGGAGGGAGGGU (ssRNA) [I7-WT], in the data set with hnRNP F (label: 5' biotin), the binding result is listed as “binds”.
